Molecular target: Mu8.1 conotoxin from Conus mucronatus (Conus mucronatus)
Test: crystal structure

Work on “Mu8.1 conotoxin from Conus mucronatus (natural protein)” yielded a stoichiometry N of 2.

— article PMC10478764
